To fix the notation:
T1: human neuropeptide Y2 receptor (human, UniProt P49146 1-381)
T1 construct: whole, on cells; also called hNPY2 receptor; hNPY2-R
T1 sequence (looked up): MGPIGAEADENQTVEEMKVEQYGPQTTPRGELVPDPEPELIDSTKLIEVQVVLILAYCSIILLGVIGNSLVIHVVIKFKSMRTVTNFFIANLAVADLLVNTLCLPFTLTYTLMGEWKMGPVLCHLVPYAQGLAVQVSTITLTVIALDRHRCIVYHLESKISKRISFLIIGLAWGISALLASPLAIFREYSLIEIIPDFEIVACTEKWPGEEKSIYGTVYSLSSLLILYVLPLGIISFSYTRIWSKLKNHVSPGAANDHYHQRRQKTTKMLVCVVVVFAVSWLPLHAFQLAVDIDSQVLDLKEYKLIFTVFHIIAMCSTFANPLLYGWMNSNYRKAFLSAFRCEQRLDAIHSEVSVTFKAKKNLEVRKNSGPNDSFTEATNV

B1: Compound 71 (peptide)
peptide: Isovaleryl-APEK([AEEA-AEEA-γGlu-C18 diacid])PEEEASPSELQRYYVSLRHYYNWLTRQRY-NH2
SMILES: CC(C)CC(=O)N[C@@H](C)C(=O)N1CCC[C@H]1C(=O)N[C@@H](CCC(=O)O)C(=O)N[C@@H](CCCCNC(=O)COCCOCCNC(=O)COCCOCCNC(=O)CC[C@H](NC(=O)CCCCCCCCCCCCCCCCC(=O)O)C(=O)O)C(=O)N1CCC[C@H]1C(=O)N[C@@H](CCC(=O)O)C(=O)N[C@@H](CCC(=O)O)C(=O)N[C@@H](CCC(=O)O)C(=O)N[C@@H](C)C(=O)N[C@@H](CO)C(=O)N1CCC[C@H]1C(=O)N[C@@H](CO)C(=O)N[C@@H](CCC(=O)O)C(=O)N[C@@H](CC(C)C)C(=O)N[C@@H](CCC(N)=O)C(=O)N[C@@H](CCCNC(=N)N)C(=O)N[C@@H](Cc1ccc(O)cc1)C(=O)N[C@@H](Cc1ccc(O)cc1)C(=O)N[C@H](C(=O)N[C@@H](CO)C(=O)N[C@@H](CC(C)C)C(=O)N[C@@H](CCCNC(=N)N)C(=O)N[C@@H](Cc1c[nH]cn1)C(=O)N[C@@H](Cc1ccc(O)cc1)C(=O)N[C@@H](Cc1ccc(O)cc1)C(=O)N[C@@H](CC(N)=O)C(=O)N[C@@H](Cc1c[nH]c2ccccc12)C(=O)N[C@@H](CC(C)C)C(=O)N[C@H](C(=O)N[C@@H](CCCNC(=N)N)C(=O)N[C@@H](CCC(N)=O)C(=O)N[C@@H](CCCNC(=N)N)C(=O)N[C@@H](Cc1ccc(O)cc1)C(N)=O)[C@@H](C)O)C(C)C
B2: Compound 79 (peptide)
peptide: Isovaleryl-APEK([AEEA-AEEA-γGlu-C18 diacid])PEEEASEEELQRYYVSLRHYYNWLTRQRY-NH2
SMILES: CC(C)CC(=O)N[C@@H](C)C(=O)N1CCC[C@H]1C(=O)N[C@@H](CCC(=O)O)C(=O)N[C@@H](CCCCNC(=O)COCCOCCNC(=O)COCCOCCNC(=O)CC[C@H](NC(=O)CCCCCCCCCCCCCCCCC(=O)O)C(=O)O)C(=O)N1CCC[C@H]1C(=O)N[C@@H](CCC(=O)O)C(=O)N[C@@H](CCC(=O)O)C(=O)N[C@@H](CCC(=O)O)C(=O)N[C@@H](C)C(=O)N[C@@H](CO)C(=O)N[C@@H](CCC(=O)O)C(=O)N[C@@H](CCC(=O)O)C(=O)N[C@@H](CCC(=O)O)C(=O)N[C@@H](CC(C)C)C(=O)N[C@@H](CCC(N)=O)C(=O)N[C@@H](CCCNC(=N)N)C(=O)N[C@@H](Cc1ccc(O)cc1)C(=O)N[C@@H](Cc1ccc(O)cc1)C(=O)N[C@H](C(=O)N[C@@H](CO)C(=O)N[C@@H](CC(C)C)C(=O)N[C@@H](CCCNC(=N)N)C(=O)N[C@@H](Cc1c[nH]cn1)C(=O)N[C@@H](Cc1ccc(O)cc1)C(=O)N[C@@H](Cc1ccc(O)cc1)C(=O)N[C@@H](CC(N)=O)C(=O)N[C@@H](Cc1c[nH]c2ccccc12)C(=O)N[C@@H](CC(C)C)C(=O)N[C@H](C(=O)N[C@@H](CCCNC(=N)N)C(=O)N[C@@H](CCC(N)=O)C(=O)N[C@@H](CCCNC(=N)N)C(=O)N[C@@H](Cc1ccc(O)cc1)C(N)=O)[C@@H](C)O)C(C)C
B3: Compound 86 (peptide)
peptide: Isovaleryl-APEK([AEEA-AEEA-γGlu-C18 diacid])PEADASPEELQRYEVSLRHYYNWLTRQRY-NH2
SMILES: CC(C)CC(=O)N[C@@H](C)C(=O)N1CCC[C@H]1C(=O)N[C@@H](CCC(=O)O)C(=O)N[C@@H](CCCCNC(=O)COCCOCCNC(=O)COCCOCCNC(=O)CC[C@H](NC(=O)CCCCCCCCCCCCCCCCC(=O)O)C(=O)O)C(=O)N1CCC[C@H]1C(=O)N[C@@H](CCC(=O)O)C(=O)N[C@@H](C)C(=O)N[C@@H](CC(=O)O)C(=O)N[C@@H](C)C(=O)N[C@@H](CO)C(=O)N1CCC[C@H]1C(=O)N[C@@H](CCC(=O)O)C(=O)N[C@@H](CCC(=O)O)C(=O)N[C@@H](CC(C)C)C(=O)N[C@@H](CCC(N)=O)C(=O)N[C@@H](CCCNC(=N)N)C(=O)N[C@@H](Cc1ccc(O)cc1)C(=O)N[C@@H](CCC(=O)O)C(=O)N[C@H](C(=O)N[C@@H](CO)C(=O)N[C@@H](CC(C)C)C(=O)N[C@@H](CCCNC(=N)N)C(=O)N[C@@H](Cc1c[nH]cn1)C(=O)N[C@@H](Cc1ccc(O)cc1)C(=O)N[C@@H](Cc1ccc(O)cc1)C(=O)N[C@@H](CC(N)=O)C(=O)N[C@@H](Cc1c[nH]c2ccccc12)C(=O)N[C@@H](CC(C)C)C(=O)N[C@H](C(=O)N[C@@H](CCCNC(=N)N)C(=O)N[C@@H](CCC(N)=O)C(=O)N[C@@H](CCCNC(=N)N)C(=O)N[C@@H](Cc1ccc(O)cc1)C(N)=O)[C@@H](C)O)C(C)C
B4: Compound 85 (peptide)
peptide: Isovaleryl-APEK([AEEA-AEEA-γGlu-C18 diacid])PEEDASPEELQRYAVSLRHYYNWLTRQRY-NH2
SMILES: CC(C)CC(=O)N[C@@H](C)C(=O)N1CCC[C@H]1C(=O)N[C@@H](CCC(=O)O)C(=O)N[C@@H](CCCCNC(=O)COCCOCCNC(=O)COCCOCCNC(=O)CC[C@H](NC(=O)CCCCCCCCCCCCCCCCC(=O)O)C(=O)O)C(=O)N1CCC[C@H]1C(=O)N[C@@H](CCC(=O)O)C(=O)N[C@@H](CCC(=O)O)C(=O)N[C@@H](CC(=O)O)C(=O)N[C@@H](C)C(=O)N[C@@H](CO)C(=O)N1CCC[C@H]1C(=O)N[C@@H](CCC(=O)O)C(=O)N[C@@H](CCC(=O)O)C(=O)N[C@@H](CC(C)C)C(=O)N[C@@H](CCC(N)=O)C(=O)N[C@@H](CCCNC(=N)N)C(=O)N[C@@H](Cc1ccc(O)cc1)C(=O)N[C@@H](C)C(=O)N[C@H](C(=O)N[C@@H](CO)C(=O)N[C@@H](CC(C)C)C(=O)N[C@@H](CCCNC(=N)N)C(=O)N[C@@H](Cc1c[nH]cn1)C(=O)N[C@@H](Cc1ccc(O)cc1)C(=O)N[C@@H](Cc1ccc(O)cc1)C(=O)N[C@@H](CC(N)=O)C(=O)N[C@@H](Cc1c[nH]c2ccccc12)C(=O)N[C@@H](CC(C)C)C(=O)N[C@H](C(=O)N[C@@H](CCCNC(=N)N)C(=O)N[C@@H](CCC(N)=O)C(=O)N[C@@H](CCCNC(=N)N)C(=O)N[C@@H](Cc1ccc(O)cc1)C(N)=O)[C@@H](C)O)C(C)C
B5: Compound 80 (peptide)
peptide: Isovaleryl-APEK([AEEA-AEEA-γGlu-C18 diacid])PEEEASPEETQRYYVSLRHYYNWLTRQRY-NH2
SMILES: CC(C)CC(=O)N[C@@H](C)C(=O)N1CCC[C@H]1C(=O)N[C@@H](CCC(=O)O)C(=O)N[C@@H](CCCCNC(=O)COCCOCCNC(=O)COCCOCCNC(=O)CC[C@H](NC(=O)CCCCCCCCCCCCCCCCC(=O)O)C(=O)O)C(=O)N1CCC[C@H]1C(=O)N[C@@H](CCC(=O)O)C(=O)N[C@@H](CCC(=O)O)C(=O)N[C@@H](CCC(=O)O)C(=O)N[C@@H](C)C(=O)N[C@@H](CO)C(=O)N1CCC[C@H]1C(=O)N[C@@H](CCC(=O)O)C(=O)N[C@@H](CCC(=O)O)C(=O)N[C@H](C(=O)N[C@@H](CCC(N)=O)C(=O)N[C@@H](CCCNC(=N)N)C(=O)N[C@@H](Cc1ccc(O)cc1)C(=O)N[C@@H](Cc1ccc(O)cc1)C(=O)N[C@H](C(=O)N[C@@H](CO)C(=O)N[C@@H](CC(C)C)C(=O)N[C@@H](CCCNC(=N)N)C(=O)N[C@@H](Cc1c[nH]cn1)C(=O)N[C@@H](Cc1ccc(O)cc1)C(=O)N[C@@H](Cc1ccc(O)cc1)C(=O)N[C@@H](CC(N)=O)C(=O)N[C@@H](Cc1c[nH]c2ccccc12)C(=O)N[C@@H](CC(C)C)C(=O)N[C@H](C(=O)N[C@@H](CCCNC(=N)N)C(=O)N[C@@H](CCC(N)=O)C(=O)N[C@@H](CCCNC(=N)N)C(=O)N[C@@H](Cc1ccc(O)cc1)C(N)=O)[C@@H](C)O)C(C)C)[C@@H](C)O
B6: Compound 77 (peptide)
peptide: Isovaleryl-APEK([AEEA-AEEA-γGlu-C18 diacid])PEEDASEEELQRYYVELRHYYNWLTRQRY-NH2
SMILES: CC(C)CC(=O)N[C@@H](C)C(=O)N1CCC[C@H]1C(=O)N[C@@H](CCC(=O)O)C(=O)N[C@@H](CCCCNC(=O)COCCOCCNC(=O)COCCOCCNC(=O)CC[C@H](NC(=O)CCCCCCCCCCCCCCCCC(=O)O)C(=O)O)C(=O)N1CCC[C@H]1C(=O)N[C@@H](CCC(=O)O)C(=O)N[C@@H](CCC(=O)O)C(=O)N[C@@H](CC(=O)O)C(=O)N[C@@H](C)C(=O)N[C@@H](CO)C(=O)N[C@@H](CCC(=O)O)C(=O)N[C@@H](CCC(=O)O)C(=O)N[C@@H](CCC(=O)O)C(=O)N[C@@H](CC(C)C)C(=O)N[C@@H](CCC(N)=O)C(=O)N[C@@H](CCCNC(=N)N)C(=O)N[C@@H](Cc1ccc(O)cc1)C(=O)N[C@@H](Cc1ccc(O)cc1)C(=O)N[C@H](C(=O)N[C@@H](CCC(=O)O)C(=O)N[C@@H](CC(C)C)C(=O)N[C@@H](CCCNC(=N)N)C(=O)N[C@@H](Cc1c[nH]cn1)C(=O)N[C@@H](Cc1ccc(O)cc1)C(=O)N[C@@H](Cc1ccc(O)cc1)C(=O)N[C@@H](CC(N)=O)C(=O)N[C@@H](Cc1c[nH]c2ccccc12)C(=O)N[C@@H](CC(C)C)C(=O)N[C@H](C(=O)N[C@@H](CCCNC(=N)N)C(=O)N[C@@H](CCC(N)=O)C(=O)N[C@@H](CCCNC(=N)N)C(=O)N[C@@H](Cc1ccc(O)cc1)C(N)=O)[C@@H](C)O)C(C)C

*1 amine or outer side, *2 acyl side, *3 side chain or, on linkers, in order; H or OH if unused. Side-chain parts run from the residue outwards. The star is where a group is joined. C18 diacid = O=C(O)CCCCCCCCCCCCCCCCC(=O)*; γGlu = O=C(O)[C@H](CCC(=O)[*:2])N[*:1]; Isovaleryl = CC(C)CC(=O)*; AEEA = NCCOCCOCC(=O)O

From patent publication US20210139548A1 (published 2021) come the findings set out here.

The target of this assay is T1, human neuropeptide Y2 receptor. Kind of assay: radioligand competition (125I-PYY(1-36)), hNPY2R membranes. A digest of the protocol: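 Commercial human Y2 receptor membranes (0.5 μg protein/well) were incubated with peptide for 2 h at room temperature in 50 mM HEPES, 5 mM MgCl₂, 1 mM CaCl₂, pH 7.4, with 0.2% ovalbumin. Bound radioligand was separated on PEI-soaked GF/C filters and counted by scintillation, and IC₅₀ came from nonlinear sigmoidal regression.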
On the technique in general: Displacement assays read how much labelled ligand stays bound in the presence of the test substance.
Take B1: the Ki is 5.22 nM.

Take B2: the Ki came out at 4.52 nM.

For the molecule B3, the Ki worked out at 1.19 nM.

With B4, the Ki came to 1.56 nM.

Turning to B5, the affinity, expressed as Ki, was 6.96 nM.

B6 had a Ki of 6.17 nM. This Ki and that of the molecule before are within 1.5-fold of each other.

What is called Ki is a measure of affinity in units of concentration, obtained from inhibition or displacement. Low readings indicate higher affinity, high ones lower affinity.
